In PMC9536601, “Binding of adenovirus species C hexon to prothrombin and the influence of hexon on vector properties in vitro and in vivo” (PLoS Pathogens, 2022):

How the values were obtained:
Assay in all cases: SPR; Biacore T200; about 300 to 5,000 RU of Ad virions immobilised on a CM5 chip, coagulation factors flowed over at four concentrations, 50 uL/min; running buffer 10 mM HEPES, 150 mM NaCl, 1 mM CaCl2, 0.5 mM MgCl2, 0.1% BSA, 0.05% polysorbate 20, pH 7.4; regeneration with 3 mM EDTA; global fit to a 1:1 kinetic interaction model, double referencing
Conditions in all cases: both partners purified
[1] = target: T1, human prothrombin (coagulation factor II) (human, UniProt P00734 44-622, gamma-carboxylated glutamate residues in the Gla domain)
T1 construct: prothrombin (FII), human, plasma-derived; also called human FII; FII; source: bought: Haematologic Technologies, Inc. (HCP-0010), plasma-derived

[2] = target: T2, mouse coagulation factor X (mouse, UniProt O88947 41-481, gamma-carboxylated glutamate residues in the Gla domain)
T2 construct: coagulation factor X, mouse, plasma-derived; Pretreated with 125 uM GGACK (EGRCK); written here as one entry; also called mouse FX; source: bought: Haematologic Technologies, Inc. (MCX-5050), plasma-derived

[3] = target: T3, mouse prothrombin (coagulation factor II) (mouse, UniProt P19221 44-618, gamma-carboxylated glutamate residues in the Gla domain)
T3 construct: prothrombin (FII), mouse, plasma-derived; also called mouse FII
T3 sequence (P19221 44-618): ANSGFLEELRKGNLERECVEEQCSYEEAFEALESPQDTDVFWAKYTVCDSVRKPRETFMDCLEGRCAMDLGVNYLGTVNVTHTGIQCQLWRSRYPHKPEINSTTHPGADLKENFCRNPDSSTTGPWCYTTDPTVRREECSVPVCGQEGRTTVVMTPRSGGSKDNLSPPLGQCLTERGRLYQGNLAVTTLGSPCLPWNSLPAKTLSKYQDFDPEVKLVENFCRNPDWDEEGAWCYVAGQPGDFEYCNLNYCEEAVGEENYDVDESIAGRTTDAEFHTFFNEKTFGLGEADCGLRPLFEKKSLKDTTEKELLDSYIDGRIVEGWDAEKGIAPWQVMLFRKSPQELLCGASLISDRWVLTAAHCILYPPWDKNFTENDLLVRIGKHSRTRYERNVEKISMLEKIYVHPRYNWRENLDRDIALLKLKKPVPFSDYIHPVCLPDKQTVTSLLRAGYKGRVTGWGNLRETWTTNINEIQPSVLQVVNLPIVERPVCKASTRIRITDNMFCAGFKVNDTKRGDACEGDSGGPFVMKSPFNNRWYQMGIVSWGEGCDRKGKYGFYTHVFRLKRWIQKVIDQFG

[4] = target: T4, human coagulation factor X (human, UniProt P00742 41-488, gamma-carboxylated glutamate residues in the Gla domain)
T4 construct: coagulation factor X, human, plasma-derived; written here as one entry; also called human FX; FX; source: bought: Haematologic Technologies, Inc. (HCX-0050), plasma-derived

[5] = target: T5, bovine coagulation factor X (bovine, UniProt P00743 41-492, gamma-carboxylated glutamate residues in the Gla domain)
T5 construct: coagulation factor X, bovine, plasma-derived; Pretreated with 125 uM GGACK (EGRCK); written here as one entry; also called bovine FX; source: bought: Haematologic Technologies, Inc. (BCX-1050), plasma-derived

[6] = target: T1, human prothrombin (coagulation factor …); remark: listed apart in the source
[7] = target: T6, bovine prothrombin (coagulation factor II) (bovine, UniProt P00735 44-625, gamma-carboxylated glutamate residues in the Gla domain)
T6 construct: prothrombin (FII), bovine, plasma-derived; also called bovine FII; source: bought: Haematologic Technologies, Inc. (BCP-1010), plasma-derived
T6 sequence (P00735 44-625): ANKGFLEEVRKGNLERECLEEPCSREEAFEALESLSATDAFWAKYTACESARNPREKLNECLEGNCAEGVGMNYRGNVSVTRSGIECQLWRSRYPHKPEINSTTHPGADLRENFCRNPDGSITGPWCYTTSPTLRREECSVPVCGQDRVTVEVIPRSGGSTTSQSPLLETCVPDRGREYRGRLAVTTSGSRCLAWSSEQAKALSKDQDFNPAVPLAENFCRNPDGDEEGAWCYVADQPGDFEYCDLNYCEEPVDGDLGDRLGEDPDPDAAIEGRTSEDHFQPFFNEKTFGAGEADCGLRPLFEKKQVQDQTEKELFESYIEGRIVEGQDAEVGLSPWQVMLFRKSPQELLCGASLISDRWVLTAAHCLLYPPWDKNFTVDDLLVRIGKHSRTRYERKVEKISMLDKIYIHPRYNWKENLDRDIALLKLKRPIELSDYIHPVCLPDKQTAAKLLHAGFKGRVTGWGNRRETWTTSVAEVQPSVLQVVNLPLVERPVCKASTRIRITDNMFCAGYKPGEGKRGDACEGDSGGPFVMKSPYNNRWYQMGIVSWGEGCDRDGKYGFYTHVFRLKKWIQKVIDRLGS

B1: hexon of the E1/E3-deleted Ad5 vector Ad5.0 (wild-type Ad5 capsid, on virions) (natural protein, human adenovirus 5)
chain: ATPSMMPQWSYMHISGQDASEYLSPGLVQFARATETYFSLNNKFRNPTVAPTHDVTTDRSQRLTLRFIPVDREDTAYSYKARFTLAVGDNRVLDMASTYFDIRGVLDRGPTFKPYSGTAYNALAPKGAPNPCEWDEAATALEINLEEEDDDNEDEVDEQAEQQKTHVFGQAPYSGINITKEGIQIGVEGQTPKYADKTFQPEPQIGESQWYETEINHAAGRVLKKTTPMKPCYGSYAKPTNENGGQGILVKQQNGKLESQVEMQFFSTTEATAGNGDNLTPKVVLYSEDVDIETPDTHISYMPTIKEGNSRELMGQQSMPNRPNYIAFRDNFIGLMYYNSTGNMGVLAGQASQLNAVVDLQDRNTELSYQLLLDSIGDRTRYFSMWNQAVDSYDPDVRIIENHGTEDELPNYCFPLGGVINTETLTKVKPKTGQENGWEKDATEFSDKNEIRVGNNFAMEINLNANLWRNFLYSNIALYLPDKLKYSPSNVKISDNPNTYDYMNKRVVAPGLVDCYINLGARWSLDYMDNVNPFNHHRNAGLRYRSMLLGNGRYVPFHIQVPQKFFAIKNLLLLPGSYTYEWNFRKDVNMVLQSSLGNDLRVDGASIKFDSICLYATFFPMAHNTASTLEAMLRNDTNDQSFNDYLSAANMLYPIPANATNVPISIPSRNWAAFRGWAFTRLKTKETPSLGSGYDPYYTYSGSIPYLDGTFYLNHTFKKVAITFDSSVSWPGNDRLLTPNEFEIKRSVDGEGYNVAQCNMTKDWFLVQMLANYNIGYQGFYIPESYKDRMYSFFRNFQPMSRQVVDDTKYKDYQQVGILHQHNNSGFVGYLAPTMREGQAYPANFPYPLIGKTAVDSITQKKFLCDRTLWRIPFSSNFMSMGALTDLGQNLLYANSAHALDMTFEVDPMDEPTLLYVLFEVFDVVRVHRPHRGVIETVYLRTPFSAGNATT
notes: hexon of human adenovirus type 5, unchanged, as it stands in the capsid of the vector; Immobilised as whole vector virions; source: E1/E3-deleted Ad5 vector grown on 293 cells, virions purified by CsCl ultracentrifugation
[1]
  Kd: 35 nM
  koff: 0.00317 s⁻¹
  kon: 90500 M⁻¹ s⁻¹

B2: hexon of wild-type human adenovirus type 6 (on virions) (natural protein)
chain: ATPSMMPQWSYMHISGQDASEYLSPGLVQFARATETYFSLNNKFRNPTVAPTHDVTTDRSQRLTLRFIPVDREDTAYSYKARFTLAVGDNRVLDMASTYFDIRGVLDRGPTFKPYSGTAYNALAPKGAPNSCEWEQNETAQVDAQELDEEENEANEAQAREQEQAKKTHVYAQAPLSGIKITKEGLQIGTADATVAGAGKEIFADKTFQPEPQVGESQWNEADATAAGGRVLKKTTPMKPCYGSYARPTNSNGGQGVMVEQNGKLESQVEMQFFSTSTNATNEVNNIQPTVVLYSEDVNMETPDTHLSYKPKMGDKNAKVMLGQQAMPNRPNYIAFRDNFIGLMYYNSTGNMGVLAGQASQLNAVVDLQDRNTELSYQLLLDSIGDRTRYFSMWNQAVDSYDPDVRIIENHGTEDELPNYCFPLGGIGITDTFQAVKTTAANGDQGNTTWQKDSTFAERNEIGVGNNFAMEINLNANLWRNFLYSNIALYLPDKLKYNPTNVEISDNPNTYDYMNKRVVAPGLVDCYINLGARWSLDYMDNVNPFNHHRNAGLRYRSMLLGNGRYVPFHIQVPQKFFAIKNLLLLPGSYTYEWNFRKDVNMVLQSSLGNDLRVDGASIKFDSICLYATFFPMAHNTASTLEAMLRNDTNDQSFNDYLSAANMLYPIPANATNVPISIPSRNWAAFRGWAFTRLKTKETPSLGSGYDPYYTYSGSIPYLDGTFYLNHTFKKVAITFDSSVSWPGNDRLLTPNEFEIKRSVDGEGYNVAQCNMTKDWFLVQMLANYNIGYQGFYIPESYKDRMYSFFRNFQPMSRQVVDDTKYKDYQQVGIIHQHNNSGFVGYLAPTMREGQAYPANVPYPLIGKTAVDSITQKKFLCDRTLWRIPFSSNFMSMGALTDLGQNLLYANSAHALDMTFEVDPMDEPTLLYVLFEVFDVVRVHRPHRGVIETVYLRTPFSAGNATT
[2]
  Kd: 0.42 nM
  koff: 4.08e-05 s⁻¹
  kon: 96600 M⁻¹ s⁻¹
[3]
  Kd: 9.9 nM
  koff: 0.000575 s⁻¹
  kon: 58200 M⁻¹ s⁻¹
[4]
  Kd: 28 nM
  koff: 0.00326 s⁻¹
  kon: 116000 M⁻¹ s⁻¹
[5]
  Kd: 100 nM
  koff: 0.0147 s⁻¹
  kon: 144000 M⁻¹ s⁻¹
[6]
  Kd: 2.7 nM
  koff: 0.000182 s⁻¹
  kon: 67000 M⁻¹ s⁻¹
[7]
  Kd: 75 nM
  koff: 0.00395 s⁻¹
  kon: 53000 M⁻¹ s⁻¹
